Data as given in patent US20200347144A1 (SHANGHAI HYAMAB BIOTECH, published 2020).

T1: mouse 4-1BB protein (extracellular domain) (mouse, UniProt P20334 24-187)
T1 construct: extracellular domain; also called mouse 4-1BB-his; mouse 4-1BB-hFc protein
T1 sequence (looked up): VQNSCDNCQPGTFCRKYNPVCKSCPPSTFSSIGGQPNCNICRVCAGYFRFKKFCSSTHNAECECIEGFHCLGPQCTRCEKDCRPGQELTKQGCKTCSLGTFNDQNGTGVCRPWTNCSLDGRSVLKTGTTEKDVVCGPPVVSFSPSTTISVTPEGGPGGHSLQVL


Tests used:
[1] = target: T2, monkey 4-1BB-his protein (monkey); test: ELISA, coated monkey 4-1BB-his; Ab 2 ug/ml
T2 construct: extracellular domain; Bought protein; also called extracellular domain of monkey-derived 4-1BB protein
Protocol: (§1) The purified immunogen A (4-1BB-hFc), monkey 4-1BB-his, and mouse 4-1BB-his obtained in Example 1 [for the preparation method, see step 1 of Example 1, preparation of immunogen A], of which the extracellular domain of monkey-derived 4-1BB protein (purchased from ACRO biosystems), the extracellular domain of mouse 4-1BB protein (purchased from sino biological) or other immune detection point proteins respectively were diluted with PBS to a final concentration of 1.0 μg/mL, then added with […] per well to 96-well ELISA plate. It was sealed with plastic film and incubated at 4° C. overnight. The next day, the plate was washed twice with the plate-washing solution [PBS containing 0.01% (v/v) Tween20] and blocking solution [PBS containing 0.01% (v/v) Tween 20 and 1% (v/v) BSA] was added and blocked at room temperature for 2 hours. The blocking solution was discarded and 100 μl of the purified 4-1BB antibody obtained in Example 2 was added per well. After incubated at 37° C. for 2 hours, the plate was washed 3 times with a plate-washing solution [PBS containing 0.01% (v/v) Tween20]. A secondary antibody (purchased from Sigma) labeled with HRP (horseradish peroxidase) was added, and after incubated at 37° C. for 2 hours, the plate was washed 3 times with a plate-washing solution [PBS containing 0.01% (v/v) Tween20]. 100 μl of TMB substrate was added per well. After incubated for 30 minutes at room temperature, 100 μl of stop buffer (1.0N HCl) was added per well. The A450 nm values were read using an ELISA plate reader (SpectraMax 384plus, Molecular Device).

[2] = target: T3, monkey 4-1BB on CHOK1 cells (monkey); test: FACS on CHOK1-c4-1BB cells, Alexa 488 secondary antibody, average fluorescence intensity
T3 construct: whole, on cells; also called CHOK1-c4-1BB
Description: The pIRES plasmid carrying the full-length gene of monkey-derived […] (the preparation method is the same as the preparation method of the pCpC vector carrying the human-derived IgG Fc fragment (hFc) in “Preparation of immunogen A” of the step (1) in Example 1, in which the database accession number of the amino acid sequence of the extracellular region of monkey 4-1BB protein (Phe19-Thr239) is G7PSE7) was transfected into CHOK1 cell line to obtain CHOK1 stable transfected cell line containing monkey 4-1BB (herein referred to as CHOK1-c4-1BB stable cell line). The CHOK1-h4-1BB stable cell line and the CHOK1-c4-1BB stable cell line were expanded and cultivated to 90% confluence in T-75 cell culture flasks. The medium was exhausted, and washed twice with HBSS buffer (Hanks Balanced Salt Solution, purchased from Invitrogen), and then the cells were treated and collected with enzyme-free cell dissociation solution (Versene solution, purchased from Life Technology). The cells were washed twice with HBSS buffer, and after cell counting, the cells were diluted with HBSS buffer to 2×10⁶ cells per ml, and 1% goat serum blocking solution was added, the percentage being the mass percentage. It was incubated on ice for 30 minutes, and then washed twice with HBSS buffer by centrifugation. The collected cells were suspended in FACS buffer (HBSS containing 1% BSA, the percentage was the mass percentage) to 2×10⁶ cells/mL, and 100 μl per well was added to a 96-well FACS reaction plate. The purified 4-1BB antibody test sample obtained in Example 2 was added, 100 microliters per well and incubated on ice for 2 hours. […] It was washed three times with FACS buffer by centrifugation, and 100 μl of fixative [4% (v/v) paraformaldehyde] per well was added to suspend cells, and washed twice with FACS buffer after 10 minutes by centrifugation. The cells were suspended with 100 microliters of FACS buffer, and the results were detected and analyzed with FACS (FACS Calibur, purchased from BD).

[3] = target: T2, monkey 4-1BB-his protein; test: ELISA, coated monkey 4-1BB-his; Ab 0.08 ug/ml
Protocol: as §1

[4] = target: T2, monkey 4-1BB-his protein; test: ELISA: monkey 4-1BB-his coated at 1.0 µg/mL, antibody titrated, HRP secondary antibody, OD450
Protocol: as §1

[5] = target: T2, monkey 4-1BB-his protein; test: ELISA, coated monkey 4-1BB-his; Ab 0.0001 ug/ml
Protocol: as §1

[6] = target: T1, mouse 4-1BB protein (extracellular …); test: ELISA, coated mouse 4-1BB; Ab 10 ug/ml
Protocol: as §1

[7] = target: T1, mouse 4-1BB protein (extracellular …); test: ELISA, coated mouse 4-1BB; Ab 0.08 ug/ml
Protocol: as §1

[8] = target: T1, mouse 4-1BB protein (extracellular …); test: ELISA, coated mouse 4-1BB; Ab 0.4 ug/ml
Protocol: as §1

[9] = target: T1, mouse 4-1BB protein (extracellular …); test: ELISA, coated mouse 4-1BB; Ab 2 ug/ml
Protocol: as §1

[10] = target: T2, monkey 4-1BB-his protein; test: ELISA, coated monkey 4-1BB-his; Ab 0.0032 ug/ml
Protocol: as §1

[11] = target: T1, mouse 4-1BB protein (extracellular …); test: ELISA, coated mouse 4-1BB; Ab 0.0001 ug/ml
Protocol: as §1

[12] = target: T1, mouse 4-1BB protein (extracellular …); test: ELISA, coated mouse 4-1BB; Ab 0.0006 ug/ml
Protocol: as §1

[13] = target: T2, monkey 4-1BB-his protein; test: ELISA, coated monkey 4-1BB-his; Ab 10 ug/ml
Protocol: as §1

[14] = target: T1, mouse 4-1BB protein (extracellular …); test: ELISA, coated mouse 4-1BB; Ab 0.016 ug/ml
Protocol: as §1

[15] = target: T2, monkey 4-1BB-his protein; test: ELISA, coated monkey 4-1BB-his; Ab 0.016 ug/ml
Protocol: as §1

Binder | OD450 nm [1] [OD450 nm] | EC50 (read off the curve) [2] [µg/mL] | OD450 nm [3] [OD450 nm] | EC50 (read off the curve) [4] [µg/mL] | OD450 nm [5] [OD450 nm] | OD450 nm [6] [OD450 nm] | OD450 nm [7] [OD450 nm] | OD450 nm [8] [OD450 nm] | OD450 nm [9] [OD450 nm] | OD450 nm [10] [OD450 nm] | OD450 nm [11] [OD450 nm] | OD450 nm [12] [OD450 nm] | OD450 nm [13] [OD450 nm] | OD450 nm [14] [OD450 nm] | OD450 nm [15] [OD450 nm]
57B3D10 (antibody, V domains shown, also called 4-1BB fully human antibody 57B3D10) VH: QVQLQESGPGLVKPSETLSLTCTVSGGSISSYYWSWIRQPPGKGLEWIGYIYYSGSTNYNPSLKSRVTISVDTSKSQFSLKLTSVTAADTAVYYCAKDSDYYGSGSYSYWYFDLWGRGTLVTVSS VL: EIVMTQSPATLSVSPGERATLSCRASQSVSSNLAWYQQKPGQAPRLLIYGASTRAPGIPARFSGSGSGTEFTLTISSLQSEDFAVYYCQQYNNWPLTFGGGTKVEIK | 2.47 | ~0.1 | 2.03 | ~0.03 | 0.08 | 0.24 | 0.14 | 0.28 | 0.1 | 0.25 | 0.05 | 0.05 | 2.42 | 0.16 | 0.81
289B6G6 (antibody, V domains shown) VH: QVQLQESGPGLVRPSETLSLTCAVSGYSISSGYYWGWIRQPPGKGLEWIGSIFHSGNTYYNPSLKSRVIVSGDTSKNQFSLKLSSVTAADTAVYYCTRESSGFNVFDIWGQGTMVTVSS VL: not shown |  | ~0.2 |  |  |  |  |  |  |  |  |  |  |  |  | 
118F3A2 (antibody, V domains shown) VH: QVQLQQWGAGLLKPSETLSLTCGVYGGSFSTNYWSWIRQSPGKGLEWIGEINHSGNTEYNPSLKSRLTISIDTSKNQFSLKLTSVTAADTAVYYCARMGYHSPSFDFWGQGVLVTVSS VL: KIVMTQSPATLSVSPGERATLPCRVSQGIGSNLAWYQQKPGQAPRLLIYGASTRATGVPARFSGSGSGSEFTLTISSLQSEDLALYYCQQYNNWPLTFGGGTKVEIK |  |  |  |  |  | 0.31 | 0.12 | 0.06 | 0.12 |  | 0.05 | 0.05 |  | 0.09 | 
170D7F2 (antibody, V domains shown) VH: QVQLVQSGAEVKKPGASVKVSCKASGYTFTSYDINWVRQATGQGLEWMGWMNPNSGNTGYAQKFQGRVTMTRNTSISTAYMELSSLRSEDTAVYYCARETGPFDYWGQGTLVTVSS VL: DIQMTQSPSSLSASVGDRVTITCRASQRINNYLNWYQQKPGKAPKLLIYGASSLQSGVPSRFSGSGSGTDFTLTISSLQPEDFATYYCQQSYSTPFTFGPGTKVDIK |  |  |  |  |  | 0.27 | 0.1 | 0.12 | 0.11 |  | 0.05 | 0.05 |  | 0.18 | 
182A5B3 (antibody, V domains shown) VH: QVQLVQSGAEVKKPGASVKVSCKASGYTFTSYDINWVRQATGQGLEWMGWMNPNSGNTGYVQKFQGRVTMTRNTSISTAYMELSSLRSEDTAVYYCARETGPFDYWGQGTLVTVSS VL: not shown |  | ~0.4 |  |  |  |  |  |  |  |  |  |  |  |  | 
172E3E3 (antibody, V domains shown) VH: QVQLQESGPGLVKPSGTLSLTCAVSGGSISSSNWWSWVRQPPGKGLEWIGEIYHSGSTNYNPSLKSRVTISVDKSKNQLSLNLSSVTAADTAVYYCARQGGVAGTLYWYFDLWGRGTLVTVSS VL: DIVMTQSPLSLPVTPGEPASISCRSSQGLLHSNGYNYLDWYLQKPGQSPQLLIYLGSNRASGVPDRFIGSGSGTDFTLKIRRVEAEDVGVYYCMQVLQTPWTFGQGTKVEIK |  |  |  |  |  | 0.3 | 0.05 | 0.06 | 0.12 |  | 0.05 | 0.05 |  | 0.05 | 
23G3B8 (antibody, V domains shown) VH: QVQLQESGPGLVKPSETLSLTCAVSAYSISSGYYWGWIRQPPGKGLEWIGSIFHSGSNYYNPSLKSRVTISVDPSKNQFSLKLSSVTVADTAVYYCARESSGYNCFDYWGQGTLVTVSS VL: not shown |  | ~0.2 |  |  |  |  |  |  |  |  |  |  |  |  | 
119B6G5 (antibody, V domains shown) VH: EVQLLESGGGLVQPGGSLRLSCAASGFTFSNYAMSWVRQGPGKGLEWVSTIIGSGDSTYYTDSVKGRFTISRDNSKNTLFLQMNSLRAEDTAVYYCARDKSGWYYFDYWGQGTLVTVSS VL: DIQMTQSPSTLSASVGDRVTITCRASQSISNWLAWYQQKPGKAPKLLIYKASSLESGVPSRFSGSGSGTEFTLTISSLQPDDFATYYCQQYNDYFPITFGQGTRLEIK | 2.46 |  | 2.15 | ~0.03 | 0.08 |  |  |  |  | 0.24 |  |  | 2.48 |  | 0.77
258F5A8 (antibody, V domains shown) VH: QVQLVESGGGVVQPGRSLRLSCAASGFTFSSYGMHWVRQAPGKGLEWVAVIWYDGSNKYYADSVKGRFNISRDNSKNTLYLQMNSLRAEDTAVYYCARGPYLYSSGWYDYYYYGMDVWGQGTTVTVSS VL: not shown | 1.78 |  | 0.55 |  | 0.07 |  |  |  |  | 0.08 |  |  | 1.98 |  | 0.13
259G10E11 (antibody, V domains shown) VH: QVQLVESGGGVVQPGRSLRLSCAASGFTFSSYGMHWVRQAPGKGLEWVAVIWYDGSNKYYADSVKGRFTISRDNSKNTLYLQMNSLRAEDTAVYYCARGPYLYSSGWYDYYYYGMDVWGQGTTVTVSS VL: not shown | 1.51 |  | 0.46 |  | 0.07 |  |  |  |  | 0.07 |  |  | 1.83 |  | 0.12
263A11E3 (antibody, V domains shown) VH: QVQLQESGPGLVKPSETLSLTCAVSGYSISSGYYWGWIRQPPGKGLEWIGSIYHSGSTSYNPSLRSRVTISVDTSKNQFSLKLSSVTAADTAVYYCARDAGGFDYWGQGTLVTVSS VL: not shown | 0.39 |  | 0.08 |  | 0.07 |  |  |  |  | 0.07 |  |  | 0.87 |  | 0.07
